Experiments:
[1] = biological target: c-Kit (antigen of the binding assay of FIG. 9A) (Homo sapiens (Human), UniProt P10721 26-524); experiment: plate binding assay on Human c-KIT, A450-A630 (ratio corrected)
[2] = biological target: T1, CD203c (ENPP3) (antigen of the binding assay of FIG. 9B) (Homo sapiens (Human), UniProt O14638 31-875); experiment: plate binding assay on Human ENPP3, A450-A630 (ratio corrected)
T1 construct: not shown: His tag of the recombinant protein
T1 sequence: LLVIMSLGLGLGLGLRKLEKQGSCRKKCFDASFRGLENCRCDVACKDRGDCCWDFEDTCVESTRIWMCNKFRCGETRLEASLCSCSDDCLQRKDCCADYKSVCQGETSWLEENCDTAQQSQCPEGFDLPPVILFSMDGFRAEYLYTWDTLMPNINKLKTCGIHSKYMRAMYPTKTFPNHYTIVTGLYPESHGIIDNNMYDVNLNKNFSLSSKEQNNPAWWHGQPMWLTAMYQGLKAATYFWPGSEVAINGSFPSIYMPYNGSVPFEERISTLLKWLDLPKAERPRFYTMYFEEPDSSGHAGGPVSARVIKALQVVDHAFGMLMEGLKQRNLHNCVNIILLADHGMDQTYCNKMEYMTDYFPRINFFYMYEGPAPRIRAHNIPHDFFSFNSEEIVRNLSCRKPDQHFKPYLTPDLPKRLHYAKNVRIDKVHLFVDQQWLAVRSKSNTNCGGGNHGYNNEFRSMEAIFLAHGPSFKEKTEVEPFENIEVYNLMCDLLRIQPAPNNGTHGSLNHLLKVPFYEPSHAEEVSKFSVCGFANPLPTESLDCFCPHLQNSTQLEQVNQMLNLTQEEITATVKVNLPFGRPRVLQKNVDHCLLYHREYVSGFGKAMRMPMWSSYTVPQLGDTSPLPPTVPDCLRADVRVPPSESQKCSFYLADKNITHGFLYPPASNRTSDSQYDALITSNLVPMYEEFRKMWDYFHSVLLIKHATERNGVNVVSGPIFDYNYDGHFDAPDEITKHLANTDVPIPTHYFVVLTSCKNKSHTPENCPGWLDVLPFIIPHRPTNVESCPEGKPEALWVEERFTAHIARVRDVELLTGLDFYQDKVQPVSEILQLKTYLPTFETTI

[3] = biological target: T2, biotinylated cynomolgus CD203c (bio-cyCD203c, Icosagen) (cynomolgus monkey, UniProt A0A2K5TKP4 31-874, biotinylated (site not stated)); experiment: SPR (Biacore), biotinylated CD203c captured on the chip, Fab as analyte 1000 - 7.81 nM; response-versus-concentration fits in FIG. 11A-11C
T2 construct: Captured on a Biotin CAPture chip for SPR; also called cyno CD203c
T2 sequence: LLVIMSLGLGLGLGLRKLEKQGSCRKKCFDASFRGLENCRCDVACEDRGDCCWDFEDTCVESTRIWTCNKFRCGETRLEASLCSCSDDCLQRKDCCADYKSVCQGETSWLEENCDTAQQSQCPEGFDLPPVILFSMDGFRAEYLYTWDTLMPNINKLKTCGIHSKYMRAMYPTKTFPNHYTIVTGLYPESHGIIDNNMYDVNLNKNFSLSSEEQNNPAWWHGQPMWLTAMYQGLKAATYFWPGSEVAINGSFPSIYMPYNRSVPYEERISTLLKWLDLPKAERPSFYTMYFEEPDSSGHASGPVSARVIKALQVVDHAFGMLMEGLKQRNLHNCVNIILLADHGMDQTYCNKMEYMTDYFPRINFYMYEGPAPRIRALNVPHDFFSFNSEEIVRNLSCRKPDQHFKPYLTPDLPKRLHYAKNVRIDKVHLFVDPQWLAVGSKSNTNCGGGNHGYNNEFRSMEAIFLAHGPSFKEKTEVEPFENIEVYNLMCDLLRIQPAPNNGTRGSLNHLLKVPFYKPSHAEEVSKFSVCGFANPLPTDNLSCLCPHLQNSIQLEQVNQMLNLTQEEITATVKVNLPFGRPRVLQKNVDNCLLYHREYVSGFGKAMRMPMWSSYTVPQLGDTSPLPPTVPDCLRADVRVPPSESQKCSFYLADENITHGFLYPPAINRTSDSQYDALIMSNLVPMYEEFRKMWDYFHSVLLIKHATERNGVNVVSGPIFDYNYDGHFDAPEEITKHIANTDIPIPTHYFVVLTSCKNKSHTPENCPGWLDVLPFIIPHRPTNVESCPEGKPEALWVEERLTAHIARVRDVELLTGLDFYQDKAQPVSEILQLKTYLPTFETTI
Method: (§1) Biotinylated versions of the CD203c proteins were captured on a BiotinCap chip, and the antibodies injected in-solution in 2-fold serial dilutions. An SPR affinity determination assay was carried out on a BIAcore T20 using the conditions described below: [0212] […] Ligand Capture—biotinylated antigen: bio-huCD203c (Acro, Cat. nr. H52H4) and bio-cyCD203c (Icosagen) at 20 nM and 10 nM, respectively, in 1×HBS-EP+pH 7.4, on flow cell 2 over 1 min at 10 μl/min [0215] […] Complete blank assay runs without analyte antibody were included as blank reference. [0216] […] Regeneration: Baseline levels were restored using the regeneration solutions provided in the Biotin CAPture kit [0218] SPR running buffer: 1×HBS-EP+pH 7.4 (Cytiva; cat. nr. BR100669) [0219] Analysis: Data was analyzed using the Biacore Insight Evaluation Software by the steady state affinity model or the 1:1 binding model. Sensorgrams were referenced to flow cell 1 and the 0 nM concentration cycle.

[4] = biological target: T3, biotinylated human CD203c (bio-huCD203c, Acro, Cat. nr. H52H4) (human, UniProt O14638 49-875, limits assumed, biotinylated (site not stated)); experiment: as above
T3 construct: Captured on a Biotin CAPture chip for SPR
T3 sequence (looked up): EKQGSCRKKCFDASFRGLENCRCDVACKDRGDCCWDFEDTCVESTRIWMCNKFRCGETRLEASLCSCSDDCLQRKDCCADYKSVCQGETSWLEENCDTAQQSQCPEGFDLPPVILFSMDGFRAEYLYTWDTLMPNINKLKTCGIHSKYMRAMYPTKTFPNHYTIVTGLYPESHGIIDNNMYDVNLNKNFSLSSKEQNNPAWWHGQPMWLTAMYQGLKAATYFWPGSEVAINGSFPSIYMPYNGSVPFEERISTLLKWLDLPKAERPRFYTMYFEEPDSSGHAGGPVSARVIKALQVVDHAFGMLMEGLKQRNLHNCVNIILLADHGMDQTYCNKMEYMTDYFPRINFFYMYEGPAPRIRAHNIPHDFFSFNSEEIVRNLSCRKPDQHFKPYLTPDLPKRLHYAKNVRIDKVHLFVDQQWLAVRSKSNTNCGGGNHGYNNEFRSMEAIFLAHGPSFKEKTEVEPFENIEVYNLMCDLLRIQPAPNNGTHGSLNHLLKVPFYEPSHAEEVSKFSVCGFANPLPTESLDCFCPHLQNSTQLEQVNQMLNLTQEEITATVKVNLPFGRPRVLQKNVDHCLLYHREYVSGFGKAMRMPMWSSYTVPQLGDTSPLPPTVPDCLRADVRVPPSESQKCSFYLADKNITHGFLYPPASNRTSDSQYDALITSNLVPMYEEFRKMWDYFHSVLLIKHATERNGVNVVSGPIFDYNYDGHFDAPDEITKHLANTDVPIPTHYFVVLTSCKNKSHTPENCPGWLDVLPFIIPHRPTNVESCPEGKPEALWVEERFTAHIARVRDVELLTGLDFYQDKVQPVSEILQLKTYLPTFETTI
Method: as §1

Chain of c-Kit (antigen of the binding assay of FIG. 9A) (P10721 26-524 limits assumed): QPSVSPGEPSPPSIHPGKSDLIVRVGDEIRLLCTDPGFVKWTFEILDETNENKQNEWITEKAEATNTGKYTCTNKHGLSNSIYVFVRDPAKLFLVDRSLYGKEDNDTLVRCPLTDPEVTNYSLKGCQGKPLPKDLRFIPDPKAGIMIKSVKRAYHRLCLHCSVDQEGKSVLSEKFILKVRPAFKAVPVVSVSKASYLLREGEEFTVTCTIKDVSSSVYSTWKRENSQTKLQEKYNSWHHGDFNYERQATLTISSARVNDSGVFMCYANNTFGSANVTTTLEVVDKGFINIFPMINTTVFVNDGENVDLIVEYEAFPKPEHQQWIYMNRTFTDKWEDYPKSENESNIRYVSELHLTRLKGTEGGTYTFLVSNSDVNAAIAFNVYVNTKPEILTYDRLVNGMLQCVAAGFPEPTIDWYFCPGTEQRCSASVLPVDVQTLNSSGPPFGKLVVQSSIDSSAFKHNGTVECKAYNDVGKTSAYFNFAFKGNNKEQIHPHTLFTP

B1: bispecific pair with alternative common light chain VL3: MH1 VH / 2.14_1 VH / VL3 (bispecific antibody, V domains shown)
VH 1: QVQLVQSGAEVKKPGASVKVSCKASGYTFTDYYMNWVRQAPGQGLEWMGRIYPGSGNTYYAQKFQGRVTMTRDTSTSTVYMELSSLRSEDTAVYYCARGVYYYDYWGQGTLVTVSS
VH 2: QVQLQESGPGLVKPSQTLSLTCTVSGGSISSGGYYWSWIRQHPGKGLEWIGIIYYSGSTYYNPSLKSRVTISVDTSKNQFSLKLNSVTAADTAVFYCARVAIVTTIPGGMDVWGQGTTVTVSS
VL: EIVLTQSPDFQSVTPKEKVTITCRASQGIRTNLAWYQQKPDQSPKLLIKAASSLQSGVPSRFSGSGSGTDFTLTINSLEAEDAATYYCQQYNSYPRTFGQGTKVEIK
Question: What does the source list for B1?
Answer: EC50 (read off the curve) [1]: ~0.1 µg/mL; binding result [2]: no binding (tested: 200 µg/ml)

B2: 1.27-Fab (Fab, V domains shown)
VH: EVQLVQSGAEVKKPGESLKISCKGSGYRFTSYWIGWVRQMPGKGLEWMGIIYPGDSDTRYSPSFQGQVTISADKSISTAYLQWSSLKASDTAMYYCARKDYYYYAMDVWGQGTTVTVSS
VL: DIQMTQSPSSLSASVGDRVTITCRASQGIRTNLAWFQQKPGKAPKSLIYAASSLQSGVPSRFSGSGSGTDFTLTISSLQPEDFATYYCQQYNSYPRTFGGGTKVEIK
Question: With B2 as the binder, how does the Kd [3] read?
Answer: Its Kd is 387 nM.

Question: What about the Kd [4] of the same binder?
Answer: Its Kd is 705 nM.

Source: patent publication US20260028424A1 (GRANULAR THERAPEUTICS, published 2026)
